Measurements: the nanobody polyreactivity screen of Harvey et al. (2022)

Assay: yeast display, Sf9 membrane polyspecificity reagent, FACS + sequencing; frameworks hold sequencing errors
Summary of the method: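 Using colony PCR, genes from sorted yeast display clones were amplified, then sequenced on MiSeq at 2 × 250 and filtered by CDR length. The clones had been stained with 10% biotinylated, detergent-solubilized Sf9 membrane reagent for 1 hour at 4 °C and sorted by FACS into low and high (top ~1%) gates on anti-HA and streptavidin fluorescence. Polyreactivity labels come from the gate of origin.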

| Sequence | polyreactivity (PSR sort gate) |
| --- | --- |
| QVQLVESGGGLVQAGGSRRLSCAASGSTFRINAMGWYRQAPGKERELVADINSGGNTTYADSVKGRFTISRDNAKNTVYLQMNSLKPEDTAVYYCAADPVFDLWEFLLDYGYDYWGQGTQVTVSS | low polyreactivity |
| QVQLVESGGGLVQAGGSLRLSCAASGRTFSGYTMGWYRQAPGKERELVAGISRSGGRTYYADSVKGRFTISRDNAKKTVYLQMNSLKPEDTAVYYCATPYRRLNTWIYDYWGQGTQVTVSS | high polyreactivity |
| QVQHVESGGGLVQAGGSLRLSCAASGSTFSQYAMGWYRQAPGKERELVAAITRGGRTYYADSVKGRFTISRDNAKNTVYLQMNSLKPEDTAVYYCAARGGYRLRYIPYVRYDYWGQGTQVTVSS | high polyreactivity |
| QVQLVESVRGLVQAGGSLLLSCAASGITITHYDMGWYRHSSGKESELVAAITSSGRTYYADSVKGRFSLSRDNAKNTVYLQMNSLKPEDTAVYYCDAEHSWFYGLLGYWGQGTQVTVSW | high polyreactivity |
| QVQLVESGGGLVQAGGSLRLSCAASGFTFYGYAMGWYRQAPGKEREFVAAISSRGGRTYYADSVKGRFTISRDNAKNTVYLQMNSLKPEDTAVYYCARRRATGRFSLDYWGQGTQVTVSS | high polyreactivity |
| QVQLVESGGGLVHAGGSLRLSCAASGSIIEAYAMGWYRQAPGKEMELVAVISTGGGSTSYADSVKGRFTISRDNAKNTVYLQMNSLKPEDTAVYYCAAEYRWSYFRTYYSWGQGTQVTVSS | low polyreactivity |
| QVQLVESGGGLVQAGGSLRLSCAASGFTFPDYAMGWYRQAPGKERELVAGISSTGDSTYYADSVKGRITISRDNAKNTVYLQMNSLKPEDTAVYYCNAAQERPIIILFSKYDYCGQGTQVTVSS | low polyreactivity |
| QVQLVESGGGLVQAGGSLRLSCAASGSIFGGYVMGWFRQAPGKERELVAAITSNGGITYADSVKGRFTISRDNAKNTVYLQMHSLKPEDTAVYYCAADSWFYGGEYKFGYYWGQGTQVTVSS | low polyreactivity |
| QVQLVESGGGLVQAGGSLRLSCAASGFTFEVYAMGRYRQAPGKERELVAAITSSGGRTYYADSVKGRFTISRDYAKNTVYLQMNSLKPEDTAGYYCAAYVSYEYGYWGQGSQVTVSS | high polyreactivity |
| QVQLVESGGGLVQEGGSLRLSCAASGRIFKYNAMGWYRQAPGKERELVAAISSSGGSTYYADSVKGRFTISRDNAKNTVYLHMNSLKPEDTAVYYCAARYNSRVYRYDYWGQGTQVTVSS | high polyreactivity |
| QVQLVESGGGLVQAGGSLRLSCAASGLTFKFNAMGWYRQAPGKERELVAAISFGGDDTYYADSVKGRFTISRDNAKNTVYLQMNSLKPEDTAVYYCAAEYDTWGYSGRDYWGQGTQVTVSS | low polyreactivity |
| QVQLVESGGGLVQAGGSLRLSCAASGFTFRVYAMGWYRQAPGKERELVAAISSGGSTNYADSVKGRFTISRDNAKNTVYLQMNSLKPEDTAVYYCAARQRYYSERPQYSGFYYWGQGTQVTVSS | high polyreactivity |
| QVQLVESRGGLVQAGGSLRLSCAASGSTFFHYAMGWYRQAPGKDRELVAAIDSNGGSTYYADSVKGRFTISRDNAKNTVYLPMNSLKPEDTAVYYCAADDLAEFEYDYWGQGTQVTVSS | low polyreactivity |
| QVQLVESGGGLVQAGGSLRLSCADSGSTFPGYTMGWYRQAPGKERELVAAIDGSAGDTYYADSVKGRVTISRDNAKNTVYLQMNSLKPEDTEVYYCAADGPYDYSPWLMYYWGQGTQVTVSS | low polyreactivity |
| QVQLVESGGGLVQAGGSLRLSCAASGSIFDYNAMGWYRQAPGKERELVAAISSGGSTYYADSVKGRFTISRDNAKNTVYLQMNSLKPEDTEVYYCAVKVWLVIQFDYWGQGTPVTVSS | low polyreactivity |
| QVQLVESGGGLVQAGGSLRLSCAASGLIFYAYVMGWYRPAPGKERELVAAITVSGGSTYYADSVKGRFTISRDNAKNTVYLQMNSLKPEDTAVYYCAADWNFYQRTFDSWGQGTQVTVSS | low polyreactivity |
| QVQLVESGGGLVQAGGSLRLSCAASGSIFGIYAMGWYRQAPGKERELVADITYSGGSTYYADSVKGRFTISRDNAKNTVYLQMNSLKPEDTAVYYCAADWVYVNAWTGGWTYEYWGQGTQVTVSS | high polyreactivity |
| QVQLVESGGGLVQAGGSLRLSCAASGSTFGYYAMGWYRQAPGKERELVATITSSGDNTYADSVKGRFTISRDNAKNTVYLQMNSLKPEDTAVYYCNARYRKSSRPVYEPYERYYWGQGTQVTVSS | high polyreactivity |
| QVQLVESGGGLVQAGGSLRLSCAASGFIFGQYAMGWYRQAPGKERELVAAISRSGGSTYYADSVKGRFTISRDNAKNTVYLQMNSLKPEDTAVYYCNRRARGDSYRLDYWGQGTQVTVSS | high polyreactivity |
| QLQLQESGGGLVQAGGSLRLSCAASGSISRMDYMAWYRQASGKERELVAAIDNGSTTYYADSVKGRLTISRDNAKYTVYLQMNSLKPEDSAVYFCAAVRGRGGTHAYWGQGTQVTVSG | low polyreactivity |
| QVQLVESGGGLVQAGGSLRLSCAASGFIFGANAMGWYRQAPGKERELVAAITWSAGRTYYADSVKGRFTISRDNAKNNVYLQMNSLKPEDTAVYYCAKQRARQSPEVGYWGQGTQVTVSS | high polyreactivity |
| QVQLVESGGGLVQAGGSLRLSCAASGSIIKSYAMGWYRQAPGKGRELVAAISSGGSTNYADSVKGRFTISRDNAKNTVYLQMNSLKPEDTAVYYCAARFRVDHRPYYYWGQGTQVTVSS | low polyreactivity |

| Sequence | polyreactivity (PSR sort gate) |
| --- | --- |
| QVQLVKSGGGLVQAGGSLRLSCAASGRTFWGYAMGWYRQAPGKERELVAAISSGGDTTYADSVKGRCTISRDNAKNTVYLQMNSLKPEDTAVYYCAADRWIPVYILGADGYDYWGQGTHVTVSS | low polyreactivity |
| QVQLVESGGGLVQAGGSLRLSCAASGIIFGGYAMGWYRQAPGKERELVASITWGGGSTYYADSVKGRFTISRDNAKNTVYLQMNSLKPEDTAVYYCNKRGYPGYDWGQGTQVTVSS | low polyreactivity |
| QDQLEESGGGLVQEGGSLRIICDAYRSTFYANTMGWYRQSTGKERELVATISIDGSTNYADSVKGRFTFSRDYAKNTVYLQMNSLKPEDTAVYYCNADVYSVLYGYWGQGTQVSVSS | low polyreactivity |
| QVQLVDSGGGLFQAGGSHRLSFAASGSILRSNAMGWYRQAPGKERELVAVINGSGGRTYYADSVKGRFTISRDNAKNTVYLQMNSLKPEDTAVYYCNADPGGRYPRRGYAHEGDYWGQGTKVTVSS | low polyreactivity |
| QVQLVESGGGLVQAGGSLRLSCAASGSTFYTNAMGWYRQAPGKERELVAAITSSVGSTHYADSVKGRFTISRDNAKNTVYIQMNSLKPEDTAVYYCAATFGYGRYGYWGQGTQVTVSS | low polyreactivity |
| QDQLVESGVGLVQAGGSHRLSCAASGSIFGWYARGWYRQAPGKERELGATITTGGSTNYADSVKGRFTISRDNAKNTVYLQMNSLKPEDTAVYYCAAGYNTWYGQYGYWGQGTQVTVSS | low polyreactivity |
| QVQLVESGGGLVQAGGSLRLSCAASGSTFYGNMGWYRQAPGKERELVAAITYRGTNTYYADSVKGRFTISRDNAKNTVYLQMNSLKPEDTAVYYCAAEYDVYQGRGRYYGYDYWGQGTQVTVSS | high polyreactivity |
| QVQLVESGGGLVQAGGSLRLSCAASGYTFGYYTMGWYRQAPRKERELVASIDSGGGTNYADSVKGRFTISRDNAKNTVYLQMNSLKPEDTAVYYCAAESPLYWVDDFESGWRYYYWGQGTQVTVSS | low polyreactivity |
| QVQLVESGGGLVQAGGSLRLICAASGRIVEGYAMGWYRQAPGKERELDAAISSGGSTYYADSVKGRFTISRDNAKNTVYLQMNSLKPEDTAVYYCNAAHSVVSHGPGAGLEMDYWGEGTQVTVSS | low polyreactivity |
| QVQLVESGGGLVQAGGSLRLSCAASGSTFAVYAMGWYRQAPGKERELVASITDGGASTYYADSVKGRFTISRDNAKNTVYLQMNSLKPEDTAVYYCAADTYPTTSEVDYWGQGTQVTVSS | low polyreactivity |
| QVQLVESGGGLVQAGGSLRLSCAASGRIFFSNAMGWYRQAPGKERELVASITGGDDTNYADSVKGRFTISRDNAKNTVYLQMNSLKPEDTAVYYCAARAIPSYRWVYRFAPKYDYWGQGTQVTVSS | low polyreactivity |
| QVQLVESGGGLVQAGGSLRLSCAASGRTFRWYAMGWDRQAPGKERELVAAISQSGGSTYYADSVKGRFTISRDNAKNTVYLQMNSLKPEDTAVYYCNAYPPYGGYAYGRGDYWGQGTQVTVSS | high polyreactivity |
| QVQLEESGGGLVQAGGSLRLSCAASGSIFYYYVMGWCRQAPGKERELVAAISSGGGTNYADSVKGRFTISRDNAKNTVYLQMNSLKPEDTAVYYCAKASAYGLANDYDYWGQGTQVTVSS | low polyreactivity |
| QVQLVESGGGLVQAGGSLRLSCAASGRTFLTYVMGWYRQAPWKERELVAAITRGGRTNYADSVKGRFTISRDNAKNTVYLQMNSLKPEDTAVYYCARDDTPRYDYWGQGTQVTVSS | low polyreactivity |
| QVQLVESGGGLVQAGGSLSLSCAASGLIYYSYAMGWYRQAPGKERELVAAITGGGSTNYADSVKGRFTISPDNAKNTVYLQMNSLKPEDTAVYYCAAAFTLRKYDYWGQGTQVSVSS | low polyreactivity |
| QVQLVESGGGLVQAGGSLRLSCAASGFIFRRYAMGWYGQAPGKERELVAVIRSSGGSTYYADSVKGRFTISRDYAKNTVYLQMISLNPEDTAVYYCAAVSYSSYRYDYWGQGTQVTVSS | high polyreactivity |
| QVQLVESGGGLVQAGGSLRLSCAASGRTFSVNDMGWYRQAPGKERELVAAISFSGGSTYYADSVKGRFTISRDNAKNTVYLQMNSLKPEDTAVYYCASEAYPSWFYVITGFGIYDYWGQGTQVTVSS | high polyreactivity |
| QVQLVESGGGLVQAGGSLRLSCAASGSIFRRYAMGWYRQEPGKEMEFVAAITGSGGRTYYADSVKGRITISRDNAKNTVYLQMNSLKPEDTAVYYCAARRRDRVTYYYWGQGTQVTVSS | high polyreactivity |
| QVQLVESGVGLVQAGGSLRLICAASGGTFEFYTMGRYRQAPGKERELVAVINASGDSTYYADSVKGRFTISRDNAKNTVYLQMNSLKPEDTAVYYCAADHRGEYDYWGQGTQVTGSS | low polyreactivity |
| QVQLVESGGGLVQAGGSLRLRCAASGSNFDTYAMGWYRQAPGKERELDAAINSGGGTNYADSVKGRFTISRDNANNTVYLQMNSLKPEDTAVYYCATDIRREAGGGDFDYWGQATQVTVSS | low polyreactivity |
| QVQLVESGGGLVQAGGSLRLSCAASGSTFSGYAMGWYRQAPGKERELVAAITSDGSTYYADSVKGRFTISRDNAKNTVYLQMNSLKPEDTAVYYCAVGIPYRGRQGYYGYYTYDYWGQGTQVTVSS | high polyreactivity |
